Measured values from US20230406885A1, “CYCLIC PEPTIDES FOR TRAPPING INTERLEUKIN-1 BETA” (MERCK SHARP & DOHME LLC, priority 2022, published 2023).
*1 amine or outer side, *2 acyl side, *3 side chain or, on linkers, in order; H or OH if unused. Primed or numbered codes have the meaning given here. [ ]: non-standard residue; d: D form. F4bcpA = 3-[4-[(S)-2-amino-2-carboxyethyl]phenyl]bicyclo[1.1.1]pentane-1-carboxylic acid, O=C([C@H](Cc1ccc(C23CC(C(=O)[*:3])(C2)C3)cc1)N[*:1])[*:2]; aMeNle = (S)-2-amino-2-methylhexanoic acid (alpha-methyl-norleucine), CCCC[C@](C)(N[*:1])C(=O)[*:2]; dDabMe3 = [(R)-3-amino-3-carboxypropyl]-trimethylazanium, C[N+](C)(C)CC[C@@H](N[*:1])C(=O)[*:2]; F4pcCCA = (1R,4s)-4-(4-((S)-2-amino-2-carboxyethyl)phenyl)cyclohexane-1-carboxylic acid; Phe(4-(trans-4-COOH-cHex)) = N[C@@H](Cc1ccc([C@H]2CC[C@H](C(=O)O)CC2)cc1)C(=O)O; Phe(4-(4-Ac-piperazinyl)) = CC(=O)N1CCN(c2ccc(C[C@H](N)C(=O)O)cc2)CC1; Pro(trans-4-NH2) = O=C([C@@H]1C[C@@H](N[*:3])CN1[*:1])[*:2]; Bip(4'-COOH) = N[C@@H](Cc1ccc(-c2ccc(C(=O)O)cc2)cc1)C(=O)O; 1Nal(3S-Me) = C[C@@H](c1cccc2ccccc12)[C@H](N)C(=O)O; Ala(indolin-1-yl) = N[C@@H](CN1CCc2ccccc21)C(=O)O; Phe(4-COOH) = N[C@@H](Cc1ccc(C(=O)O)cc1)C(=O)O; Trp(6-F) = N[C@@H](Cc1c[nH]c2cc(F)ccc12)C(=O)O; αMeNle = CCCC[C@](C)(N[*:1])C(=O)[*:2]; hTyr = N[C@@H](CCc1ccc(O)cc1)C(=O)O; hCha = N[C@@H](CCC1CCCCC1)C(=O)O; 4Pal = N[C@@H](Cc1ccncc1)C(=O)O; Cha = N[C@@H](CC1CCCCC1)C(=O)O; dαMeDab′ = not defined here; dDab = NCC[C@@H](N)C(=O)O; Nle = CCCC[C@H](N)C(=O)O; dNMeA = CN[C@H](C)C(=O)O

molecular target: Recombinant human IL-1β (BioLegend 579404) (human, UniProt P01584 117-269); test: cell-based or functional assay

Binder | MRC5 IC50
cyclo([Phe(4-(trans-4-COOH-cHex))]W[Phe(4-COOH)]G[Pro(trans-4-NH2)][1Nal(3S-Me)]D[dNMeA]G[Bip(4'-COOH)][4Pal]G[dDab][αMeNle]) (SMILES CCCC[C@]1(C)NC(=O)[C@@H](CCN)NC(=O)CNC(=O)[C@H](Cc2ccncc2)NC(=O)[C@H](Cc2ccc(-c3ccc(C(=O)O)cc3)cc2)NC(=O)CNC(=O)[C@@H](C)N(C)C(=O)[C@H](CC(=O)O)NC(=O)[C@H]([C@@H](C)c2cccc3ccccc23)NC(=O)[C@@H]2C[C@@H](N)CN2C(=O)CNC(=O)[C@H](Cc2ccc(C(=O)O)cc2)NC(=O)[C@H](Cc2c[nH]c3ccccc23)NC(=O)[C@H](Cc2ccc([C@H]3CC[C@H](C(=O)O)CC3)cc2)NC1=O) [SEQ ID NO: 195 (Example No. 195)] | 0.022 nM
cyclo([Phe(4-(4-Ac-piperazinyl))]W[Phe(4-COOH)]G[Pro(trans-4-NH2)][1Nal(3S-Me)]D[dNMeA]G[Bip(4'-COOH)][Ala(indolin-1-yl)]G[dDab][hTyr]) (SMILES CC(=O)N1CCN(c2ccc(C[C@@H]3NC(=O)[C@H](CCc4ccc(O)cc4)NC(=O)[C@@H](CCN)NC(=O)CNC(=O)[C@H](CN4CCc5ccccc54)NC(=O)[C@H](Cc4ccc(-c5ccc(C(=O)O)cc5)cc4)NC(=O)CNC(=O)[C@@H](C)N(C)C(=O)[C@H](CC(=O)O)NC(=O)[C@H]([C@@H](C)c4cccc5ccccc45)NC(=O)[C@@H]4C[C@@H](N)CN4C(=O)CNC(=O)[C@H](Cc4ccc(C(=O)O)cc4)NC(=O)[C@H](Cc4c[nH]c5ccccc45)NC3=O)cc2)CC1) [SEQ ID NO: 198 (Example No. 198)] | 0.021 nM
cyclo([F4pcCCA]W[Phe(4-COOH)]G[Pro(trans-4-NH2)][1Nal(3S-Me)]D[dNMeA]G[Bip(4'-COOH)][4Pal]G[dDab][hCha]) [SEQ ID NO: 191 (Example No. 191)] | 0.019 nM
cyclo([Phe(4-(trans-4-COOH-cHex))]W[Phe(4-COOH)]G[Pro(trans-4-NH2)][1Nal(3S-Me)]D[dNMeA]G[Bip(4'-COOH)][4Pal]G[dDab][hCha]) (SMILES C[C@@H]1C(=O)NCC(=O)N[C@@H](Cc2ccc(-c3ccc(C(=O)O)cc3)cc2)C(=O)N[C@@H](Cc2ccncc2)C(=O)NCC(=O)N[C@H](CCN)C(=O)N[C@@H](CCC2CCCCC2)C(=O)N[C@@H](Cc2ccc([C@H]3CC[C@H](C(=O)O)CC3)cc2)C(=O)N[C@@H](Cc2c[nH]c3ccccc23)C(=O)N[C@@H](Cc2ccc(C(=O)O)cc2)C(=O)NCC(=O)N2C[C@H](N)C[C@H]2C(=O)N[C@@H]([C@@H](C)c2cccc3ccccc23)C(=O)N[C@@H](CC(=O)O)C(=O)N1C) [SEQ ID NO: 196 (Example No. 196)] | 0.03 nM
cyclo([Phe(4-(4-Ac-piperazinyl))]W[Phe(4-COOH)]G[Pro(trans-4-NH2)][1Nal(3S-Me)]D[dNMeA]G[Bip(4'-COOH)][4Pal]G[dαMeDab′][hCha]) [SEQ ID NO: 199 (Example No. 199)] | 0.024 nM
cyclo([Phe(4-(trans-4-COOH-cHex))][Trp(6-F)][Phe(4-COOH)]G[Pro(trans-4-NH2)][1Nal(3S-Me)]D[dNMeA]G[Bip(4'-COOH)][4Pal]G[dDab][hCha]) (SMILES C[C@@H]1C(=O)NCC(=O)N[C@@H](Cc2ccc(-c3ccc(C(=O)O)cc3)cc2)C(=O)N[C@@H](Cc2ccncc2)C(=O)NCC(=O)N[C@H](CCN)C(=O)N[C@@H](CCC2CCCCC2)C(=O)N[C@@H](Cc2ccc([C@H]3CC[C@H](C(=O)O)CC3)cc2)C(=O)N[C@@H](Cc2c[nH]c3cc(F)ccc23)C(=O)N[C@@H](Cc2ccc(C(=O)O)cc2)C(=O)NCC(=O)N2C[C@H](N)C[C@H]2C(=O)N[C@@H]([C@@H](C)c2cccc3ccccc23)C(=O)N[C@@H](CC(=O)O)C(=O)N1C) [SEQ ID NO: 192 (Example No. 192)] | 0.015 nM
cyclo([Phe(4-(4-Ac-piperazinyl))]W[Phe(4-COOH)]G[Pro(trans-4-NH2)][1Nal(3S-Me)]D[dNMeA]G[Bip(4'-COOH)][4Pal]G[dDab][hCha]) (SMILES CC(=O)N1CCN(c2ccc(C[C@@H]3NC(=O)[C@H](CCC4CCCCC4)NC(=O)[C@@H](CCN)NC(=O)CNC(=O)[C@H](Cc4ccncc4)NC(=O)[C@H](Cc4ccc(-c5ccc(C(=O)O)cc5)cc4)NC(=O)CNC(=O)[C@@H](C)N(C)C(=O)[C@H](CC(=O)O)NC(=O)[C@H]([C@@H](C)c4cccc5ccccc45)NC(=O)[C@@H]4C[C@@H](N)CN4C(=O)CNC(=O)[C@H](Cc4ccc(C(=O)O)cc4)NC(=O)[C@H](Cc4c[nH]c5ccccc45)NC3=O)cc2)CC1) [SEQ ID NO: 201 (Example No. 201)] | 0.03 nM
cyclo([Phe(4-(trans-4-COOH-cHex))][Trp(6-F)][Phe(4-COOH)]G[Pro(trans-4-NH2)][1Nal(3S-Me)]D[dNMeA]G[Bip(4'-COOH)][4Pal]S[dDab][hCha]) (SMILES C[C@@H]1C(=O)NCC(=O)N[C@@H](Cc2ccc(-c3ccc(C(=O)O)cc3)cc2)C(=O)N[C@@H](Cc2ccncc2)C(=O)N[C@@H](CO)C(=O)N[C@H](CCN)C(=O)N[C@@H](CCC2CCCCC2)C(=O)N[C@@H](Cc2ccc([C@H]3CC[C@H](C(=O)O)CC3)cc2)C(=O)N[C@@H](Cc2c[nH]c3cc(F)ccc23)C(=O)N[C@@H](Cc2ccc(C(=O)O)cc2)C(=O)NCC(=O)N2C[C@H](N)C[C@H]2C(=O)N[C@@H]([C@@H](C)c2cccc3ccccc23)C(=O)N[C@@H](CC(=O)O)C(=O)N1C) [SEQ ID NO: 193 (Example No. 193)] | 0.012 nM
cyclo([Phe(4-(trans-4-COOH-cHex))]W[Phe(4-COOH)]G[Pro(trans-4-NH2)][1Nal(3S-Me)]D[dNMeA]G[Bip(4'-COOH)][4Pal]G[dDab][Nle]) (SMILES CCCC[C@@H]1NC(=O)[C@@H](CCN)NC(=O)CNC(=O)[C@H](Cc2ccncc2)NC(=O)[C@H](Cc2ccc(-c3ccc(C(=O)O)cc3)cc2)NC(=O)CNC(=O)[C@@H](C)N(C)C(=O)[C@H](CC(=O)O)NC(=O)[C@H]([C@@H](C)c2cccc3ccccc23)NC(=O)[C@@H]2C[C@@H](N)CN2C(=O)CNC(=O)[C@H](Cc2ccc(C(=O)O)cc2)NC(=O)[C@H](Cc2c[nH]c3ccccc23)NC(=O)[C@H](Cc2ccc([C@H]3CC[C@H](C(=O)O)CC3)cc2)NC1=O) [SEQ ID NO: 197 (Example No. 197)] | 0.024 nM
cyclo([Phe(4-(4-Ac-piperazinyl))]W[Phe(4-COOH)]G[Pro(trans-4-NH2)][1Nal(3S-Me)]D[dNMeA]G[Bip(4'-COOH)][4Pal]G[dDab][aMeNle]) (SMILES CCCC[C@]1(C)NC(=O)[C@@H](CCN)NC(=O)CNC(=O)[C@H](Cc2ccncc2)NC(=O)[C@H](Cc2ccc(-c3ccc(C(=O)O)cc3)cc2)NC(=O)CNC(=O)[C@@H](C)N(C)C(=O)[C@H](CC(=O)O)NC(=O)[C@H]([C@@H](C)c2cccc3ccccc23)NC(=O)[C@@H]2C[C@@H](N)CN2C(=O)CNC(=O)[C@H](Cc2ccc(C(=O)O)cc2)NC(=O)[C@H](Cc2c[nH]c3ccccc23)NC(=O)[C@H](Cc2ccc(N3CCN(C(C)=O)CC3)cc2)NC1=O) [SEQ ID NO: 200 (Example No. 200)] | 0.034 nM
cyclo([Phe(4-(trans-4-COOH-cHex))][Trp(6-F)][Phe(4-COOH)]G[Pro(trans-4-NH2)][1Nal(3S-Me)]D[dNMeA]G[Bip(4'-COOH)][4Pal]S[dDabMe3][hCha]) (SMILES C[C@@H]1C(=O)NCC(=O)N[C@@H](Cc2ccc(-c3ccc(C(=O)O)cc3)cc2)C(=O)N[C@@H](Cc2ccncc2)C(=O)N[C@@H](CO)C(=O)N[C@H](CC[N+](C)(C)C)C(=O)N[C@@H](CCC2CCCCC2)C(=O)N[C@@H](Cc2ccc([C@H]3CC[C@H](C(=O)O)CC3)cc2)C(=O)N[C@@H](Cc2c[nH]c3cc(F)ccc23)C(=O)N[C@@H](Cc2ccc(C(=O)O)cc2)C(=O)NCC(=O)N2C[C@H](N)C[C@H]2C(=O)N[C@@H]([C@@H](C)c2cccc3ccccc23)C(=O)N[C@@H](CC(=O)O)C(=O)N1C) [SEQ ID NO: 194 (Example No. 194)] | 0.015 nM
cyclo([F4bcpA]W[Phe(4-COOH)]G[Pro(trans-4-NH2)][1Nal(3S-Me)]D[dNMeA]G[Bip(4'-COOH)][Cha]G[dDab][hTyr]) (SMILES C[C@@H]1C(=O)NCC(=O)N[C@@H](Cc2ccc(-c3ccc(C(=O)O)cc3)cc2)C(=O)N[C@@H](CC2CCCCC2)C(=O)NCC(=O)N[C@H](CCN)C(=O)N[C@@H](CCc2ccc(O)cc2)C(=O)N[C@@H](Cc2ccc(C34CC(C(=O)O)(C3)C4)cc2)C(=O)N[C@@H](Cc2c[nH]c3ccccc23)C(=O)N[C@@H](Cc2ccc(C(=O)O)cc2)C(=O)NCC(=O)N2C[C@H](N)C[C@H]2C(=O)N[C@@H]([C@@H](C)c2cccc3ccccc23)C(=O)N[C@@H](CC(=O)O)C(=O)N1C) [SEQ ID NO: 190 (Example No. 190)] | 0.018 nM
cyclo([F4bcpA]W[Phe(4-COOH)]G[Pro(trans-4-NH2)][1Nal(3S-Me)]D[dNMeA]G[Bip(4'-COOH)][Cha]G[dDab][hCha]) (SMILES C[C@@H]1C(=O)NCC(=O)N[C@@H](Cc2ccc(-c3ccc(C(=O)O)cc3)cc2)C(=O)N[C@@H](CC2CCCCC2)C(=O)NCC(=O)N[C@H](CCN)C(=O)N[C@@H](CCC2CCCCC2)C(=O)N[C@@H](Cc2ccc(C34CC(C(=O)O)(C3)C4)cc2)C(=O)N[C@@H](Cc2c[nH]c3ccccc23)C(=O)N[C@@H](Cc2ccc(C(=O)O)cc2)C(=O)NCC(=O)N2C[C@H](N)C[C@H]2C(=O)N[C@@H]([C@@H](C)c2cccc3ccccc23)C(=O)N[C@@H](CC(=O)O)C(=O)N1C) [SEQ ID NO: 189 (Example No. 189)] | 0.019 nM
